By Kd is commonly meant a measure of binding affinity in units of concentration. In general, koff refers to the rate constant with which the complex falls apart. A word on the kon: it is the second-order rate constant of association.

Where two headings read alike, the source gives them in different places.

The results in this text go back to article PMC5547543.

The target of experiment [1] is Hck (2PA-YEEI) (UniProt P08631). Nature of the experiment: SPR; Hck (2PA-YEEI) amine-coupled (EDC/NHS) to a CMD 500 carboxymethyl dextran chip, 6053 RU, BIAcore 2000; Csk, Chk, Chk mutants and chimera as analytes in HBS (10 mM HEPES pH 7.4, 150 mM NaCl, 3.4 mM EDTA, 0.005% Tween 20); global fit to a 1 to 1 model with mass transfer; molecular binding activity from the maximum response.

Experiment [2] shares this target. Described as above. The source holds these as a separate data set.

C-terminal Src kinase (Csk), recombinant, sequence (P41240 whole entry): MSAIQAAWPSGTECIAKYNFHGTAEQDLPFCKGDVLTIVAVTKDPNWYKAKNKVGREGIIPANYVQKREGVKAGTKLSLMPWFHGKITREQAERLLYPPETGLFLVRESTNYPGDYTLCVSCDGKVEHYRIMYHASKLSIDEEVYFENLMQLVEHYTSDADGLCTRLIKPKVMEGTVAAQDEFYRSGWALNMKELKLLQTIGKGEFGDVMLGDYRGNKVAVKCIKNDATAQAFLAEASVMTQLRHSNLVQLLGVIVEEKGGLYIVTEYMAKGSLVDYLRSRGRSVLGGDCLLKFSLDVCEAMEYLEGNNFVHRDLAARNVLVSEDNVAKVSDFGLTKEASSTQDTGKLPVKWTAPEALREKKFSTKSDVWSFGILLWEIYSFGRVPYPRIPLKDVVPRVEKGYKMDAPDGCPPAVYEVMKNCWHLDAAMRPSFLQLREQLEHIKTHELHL

As for “Chk (K387A) (from UniProt P42679-2 1-508) (enzyme)”, the fold reduction of kon against wild type Chk in experiment [1] was 3 fold. Besides, the Kd in experiment [2] is 0.295 µM.

As to “Chk (R382A) (from UniProt P42679-2 1-508) (enzyme)”, the fold reduction of kon against wild type Chk in experiment [1] was 3 fold. The Kd in experiment [2] is 0.227 µM.

In experiment [1], “C-terminal Src kinase (Csk), recombinant (from UniProt P41240 1-450) (enzyme)” returned a Kd of 13.1 µM, a koff of 0.0077 s⁻¹ and a kon of 588 M⁻¹ s⁻¹. For the same substance, the molecular binding activity (MBA) at 2.7 μM Csk in experiment [1] (scale: mol of analyte bound per mol of immobilized Hck) worked out at 0.01. Besides, in experiment [2], the dissociation constant (Kd) worked out at 13 µM.

In experiment [1], “Csk-Chk chimera (from UniProt P41240 1-181; P42679 235-482) (enzyme)” gave a koff of 0.00031 s⁻¹ and a kon of 243 M⁻¹ s⁻¹.
